Literature values, collected in paper PMC7314768.

What was measured:
Cys145 = Cys145 (UniProt position 3385, FLNGSCGSVGF)
His41 = His41 (UniProt position 3281, VYCPRHVICTA)

## 3C-like main protease (3CL Mpro, 3CLpro, nsp5) of SARS coronavirus (Severe acute respiratory syndrome coronavirus (SARS-CoV))
Cys145
  pKa: 8.0 ± 0.3
His41
  pKa: 6.3 ± 0.1
